Results on three compounds are retold here after PMC4461205, “Structural bases for N-glycan processing by mannoside phosphorylase” (Acta Crystallographica Section D: Biological Crystallography, 2015).

Test [1] has as its target T1, Uhgb_MP (uncultured organism, UniProt D9ZDQ9). Description: X-ray crystal structure, co-crystallization. Type of test: binding. Details: homohexamer, 240 kDa by SEC-MALLS. Conditions: +1 subsite; with phosphate, glycerol in -1 subsite; co-crystallized with 5 mM N-acetylglucosamine, pH 7.0; 4C1 chair; 1.60 A; also with mannose in 4udk (1.76 A).
Test [2] deals with T1, Uhgb_MP. Conditions: catalytic site; phosphate from 20 mM potassium phosphate buffer pH 7.0; glycerol in -1 subsite; 1.80 A; also in 4udj, 4udg, 4udk.
Test [3] addresses Uhgb_MP, β-1,4-mannopyranosyl-chitobiose phosphorylase (GH130_2 mannoside phosphorylase) (uncultivated Bacteroides bacterium (human gut)). As to the kind of experiment: SEC-MALS; 30 µl of gel-filtered Uhgb_MP at 6 mg/ml on Superdex 200 HR 10/300 in 20 mM potassium phosphate pH 7.0, 150 mM NaCl, 0.4 ml/min, 15°C.
Test [4] shares this target. Description: SAXS (SEC-SAXS); Bio SEC3 300 column on line with SAXS, 10°C; phosphate buffer or Tris-glycerol buffer (aggregation seen in both); hexamer read from data in Tris-glycerol buffer with 1 mM TCEP; ab initio envelope and rigid-body modelling. On the technique in general: Size exclusion chromatography separates by hydrodynamic size, large species first.
For test [5] the target is unchanged. As to the kind of experiment: crystal structure; sitting-drop vapour diffusion at 12°C; protein 9-12 mg/ml in 20 mM potassium phosphate pH 7.0, 150 mM NaCl, with or without 5 mM mannose and/or 5 mM N-acetylglucosamine; PEG 3350, ammonium chloride; space group P212121, six molecules per asymmetric unit.

T1 sequence (D9ZDQ9 entry or part of it): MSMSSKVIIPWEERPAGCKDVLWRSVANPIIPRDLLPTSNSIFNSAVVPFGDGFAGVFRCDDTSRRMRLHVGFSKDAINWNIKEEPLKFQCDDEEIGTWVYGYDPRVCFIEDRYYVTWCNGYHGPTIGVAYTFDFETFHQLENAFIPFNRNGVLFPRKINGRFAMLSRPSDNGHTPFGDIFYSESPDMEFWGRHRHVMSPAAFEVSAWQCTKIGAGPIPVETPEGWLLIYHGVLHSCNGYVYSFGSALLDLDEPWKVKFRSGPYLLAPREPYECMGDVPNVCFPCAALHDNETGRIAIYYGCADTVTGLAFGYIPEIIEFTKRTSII

For the compound `CC(=O)N[C@H]1C(O)O[C@H](CO)[C@@H](O)[C@@H]1O` (some centres unmarked) [N-acetylglucosamine], the “X-ray crystal structure, co-crystallization” value at Uhgb_MP [1] is “complex with N-acetylglucosamine alone (PDB entry 4udg”.

With `O=P(O)(O)O` [inorganic phosphate], at Uhgb_MP [2], the X-ray crystal structure entry is listed as “Pi is deeply buried in the catalytic site, strongly stabilized by hydrogen bonds”.

Regarding “Uhgb_MP, β-1,4-mannopyranosyl-chitobiose phosphorylase (GH130_2 mannoside phosphorylase) (enzyme)”, the stoichiometry N (in general, a count of units in the complex or per binding partner) in test [3] was 6.16; in test [4] it was 6; in test [5], 6.
